How the values were obtained:
[1] = test system: tibialis anterior muscle atrophy; assay: In vivo tibia muscles denervation assay; details: mice, plasmid electroporation in hind legs, 14 days post-denervation
Procedure: Vectors containing TRX, the R5G42, C7 or N9 aptamers or NaCl (control) were electroporated in mice hind legs (day 1) and an unilateral abolition of the motor innervation of the tibia muscles of the left hind leg was performed (day 3). After euthanasia of the mice (day 17) the tibialis anterior area was measured. Without denervation, the muscle area is relatively stable from one experiment to another (6.532.412+/−351.070, or 5.3% of variation). With denervation a reduced atrophy effect of about 27% and 48% is observed with aptamers R5G42 and N9 as compared to the atrophy effect obtained using the NaCl control (See FIGS. 19-20). The 100% of atrophy effect was evaluated using the data obtained with the NaCl control.
Another group of mice hind legs were electroporated after the injection of vectors containing TRX, the R5G42, C7 or N9 aptamers or with NaCl (control) at day 1. A unilateral abolition of the motor innervation of the tibia muscles of the left hind leg was performed at day 3 in order to induce a muscular atrophy. The mice were then euthanised at day 17, i.e. 14 days after sciatic denervation of the left hind leg. […] With denervation a reduced atrophy effect of about 27% and 48% is observed with aptamers R5G42 and N9 as compared to the atrophy effect obtained using the NaCl control (FIG. 18). […]

CNA = assay: Yeast two-hybrid assay; type: binding, human; details: point mutant
Source text: (A) Yeast two-hybrid mating assay. TB50α yeast were co-transformed with pSH18-34T (bearing a lacZ reporter gene) and plasmids directing the expression of LexA alone or in fusion with peptide aptamers R5G42, R7G44 or R5G52. MB210a yeast were transformed with the selected cDNA library plasmids directing the expression of CNAβ, CNAγ, and NS5ATP2 truncated proteins. To obtain negative controls, MB210a yeast were also transformed with the empty prey plasmid (pJG4-5) and with pJG4-5 directing the expression of Ras and FKBP12 prey proteins. To obtain a positive control, MB210a yeast were transformed with pJG4-5 directing the expression of RG22 peptide aptamer prey fusion protein that interacts with LexA in the context of most LexA fusion proteins.
The inventors set out to map the R5G42 binding site on CNA. The CNA interacting clones selected in the yeast two-hybrid experiments corresponded to the carboxy-terminal regions of the beta and gamma isoforms, encompassing the calmodulin-binding domain and the auto-inhibitory domain (see FIG. 3B). […] The LexA-R5G52 bait protein may thus not be properly expressed and/or folded in this yeast two-hybrid setting.
The inventors explored the ability of R5G42 mutants having a one amino acid change as compared to R5G42, to bind to CNA beta and gamma C-Terminal fragments (FIG. 3b) and to NS5A-TP2. To this end, they proceeded to yeast-two hybrid assays as in example 3. CNA beta and gamma C-Terminal fragments (FIG. 3b) and NS5A-TP2 were cloned in three different plasmids (pSH18-34, pJK103 and pRB18-40), which differed from each other in the level of sensitivity of their promoter to the bait/prey complex formation, pSH18-34 having the highest sensitivity and pRB18-40 having the lowest.
The 5′ end of RH6 (upper case) matches part of the HA epitope tag and the 5′ ends of RH4, RH3 and RH7 (upper case) match the 5′ extremity of the ADH terminator. The PCR reactions was performed using pCMV-SPORT6-CnAβ as a template. CnAβCter Δ1, Δ2, CaM were constructed by combining oligonucleotides RH6/RH4, RH6/RH3, RH6/RH7, respectively. […]

B1: N9: R5G42 mutant having a one amino acid change (SEQ ID 33) (protein)
chain: MVKQIESKTAFQEALDAAGDKLVVVDFSAAWCGPSAVTFAVCALGPCKMIKPFFHSLSEKYSNVIFLEVDVDDCQDVASECEVKCMPTFQFFKKGQKVGEFSGANKEKLEATINELV
modifications: Aptamer R5G42 mutant N9
[1]
  reduced atrophy effect as compared to the NaCl control (tibialis anterior area): ~48%
CNA
  two hybrid interaction phenotype against CNA compared to R5G42: dramatic reduction

Reference: US8440804B2, “Polypeptides having modulatory effects on cells” (Ecole Normale Superieure de Lyon, priority 2006, dated 2013)
